Source: publication PMC9606830, “GhBEE3-Like gene regulated by brassinosteroids is involved in cotton drought tolerance”

Key:
GhBZR1-His [1] = target: T1, GhBZR1-His (Gossypium hirsutum, UniProt A0A1B0QVW2 1-313); test: EMSA; LightShift Chemiluminescent EMSA Kit (Thermo); buffer, salt, pH and temperature not stated; details: protein: recombinant; tags: C-terminal His (pET30a); chain copies: 2; label: biotin on both strands (text: 3'-end and 5'-end); blunt
T1 sequence: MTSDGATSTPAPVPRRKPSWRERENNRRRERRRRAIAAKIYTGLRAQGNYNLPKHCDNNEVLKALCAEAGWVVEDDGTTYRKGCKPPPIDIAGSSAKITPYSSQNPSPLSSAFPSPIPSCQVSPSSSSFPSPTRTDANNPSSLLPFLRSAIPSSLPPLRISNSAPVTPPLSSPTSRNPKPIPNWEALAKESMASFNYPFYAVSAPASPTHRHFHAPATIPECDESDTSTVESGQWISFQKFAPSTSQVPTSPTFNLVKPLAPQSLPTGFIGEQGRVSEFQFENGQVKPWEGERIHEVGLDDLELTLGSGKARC

GhBZR1-His [2] = target: T1, GhBZR1-His; test: competition; unlabelled competitor against biotinylated GhBEE3-Like Probe; significantly reduced the shift; LightShift Chemiluminescent EMSA Kit (Thermo); buffer, salt, pH and temperature not stated; details: protein: recombinant; tags: C-terminal His (pET30a); chain copies: 2; label: none; blunt

B1: GhBEE3-Like Probe (dsDNA)
DNA 1: ACAATTACACGTGACATGTC
DNA 2: GACATGTCACGTGTAATTGT
- binding result (GhBZR1-His [1]): binds

B2: Mutant Probe (dsDNA)
DNA 1: ACAATTAAGCGGAACATGTC
DNA 2: GACATGTTCCGCTTAATTGT
- binding result (GhBZR1-His [1]): no binding

B3: Competitor Probe (dsDNA)
DNA 1: ACAATTACACGTGACATGTC
DNA 2: GACATGTCACGTGTAATTGT
- binding result (GhBZR1-His [2]): binds
